Measurements published in patent publication EP4477673A1, “IMMUNOCONJUGATE AND USE THEREOF” (priority 2022, dated 2023).
Read-outs that look alike come from different tables or passages of the source. One block for each binder: values may come before it.

How the values were obtained:
human PD-1 [1] = molecular target: T1, human PD-1 (human, UniProt Q15116 25-288); experiment: cell-based or functional assay
IL-2Rβ/γ on M07e cells = molecular target: T2, IL-2Rβ/γ on M07e cells (human, UniProt P14784 27-551; P31785 23-369); experiment: cell-based or functional assay
T2 sequence (looked up) 1: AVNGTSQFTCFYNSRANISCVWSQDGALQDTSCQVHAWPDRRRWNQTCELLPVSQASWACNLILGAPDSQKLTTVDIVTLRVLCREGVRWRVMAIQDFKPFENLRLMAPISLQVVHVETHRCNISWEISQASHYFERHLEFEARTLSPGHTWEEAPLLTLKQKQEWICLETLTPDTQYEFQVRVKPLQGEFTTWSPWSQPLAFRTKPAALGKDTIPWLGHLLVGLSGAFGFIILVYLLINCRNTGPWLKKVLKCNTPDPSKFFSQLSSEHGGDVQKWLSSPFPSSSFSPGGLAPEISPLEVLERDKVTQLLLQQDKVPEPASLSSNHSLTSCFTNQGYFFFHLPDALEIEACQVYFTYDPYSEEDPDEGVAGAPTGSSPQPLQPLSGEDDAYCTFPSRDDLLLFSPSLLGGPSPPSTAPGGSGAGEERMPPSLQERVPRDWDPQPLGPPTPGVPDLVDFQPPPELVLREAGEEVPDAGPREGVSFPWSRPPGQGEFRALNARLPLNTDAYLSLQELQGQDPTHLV
T2 sequence (looked up) 2: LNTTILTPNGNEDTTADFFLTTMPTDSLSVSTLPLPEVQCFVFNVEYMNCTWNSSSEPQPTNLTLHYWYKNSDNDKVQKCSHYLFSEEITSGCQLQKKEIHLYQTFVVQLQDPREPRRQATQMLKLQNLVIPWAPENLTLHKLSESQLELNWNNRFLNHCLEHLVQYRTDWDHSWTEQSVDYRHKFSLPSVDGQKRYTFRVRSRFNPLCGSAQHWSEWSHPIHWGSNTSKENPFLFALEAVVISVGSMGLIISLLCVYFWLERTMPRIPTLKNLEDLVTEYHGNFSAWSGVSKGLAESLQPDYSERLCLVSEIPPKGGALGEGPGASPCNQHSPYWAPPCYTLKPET

human PD-1 [2] = molecular target: T1, human PD-1; experiment: cell-based or functional assay; remark: listed apart in the source
human PD-1 [3] = molecular target: T1, human PD-1; experiment: cell-based or functional assay; remark: listed apart in the source
[4] = molecular target: T3, human IL-2Rα receptor protein (Sino Biological, 10165-H08H) (human, UniProt P01589 22-213); experiment: SPR Biacore 8K, fusion protein captured by anti-human IgG (Fc), IL-2Rα as analyte
T3 construct: also called CD25
T3 sequence (looked up): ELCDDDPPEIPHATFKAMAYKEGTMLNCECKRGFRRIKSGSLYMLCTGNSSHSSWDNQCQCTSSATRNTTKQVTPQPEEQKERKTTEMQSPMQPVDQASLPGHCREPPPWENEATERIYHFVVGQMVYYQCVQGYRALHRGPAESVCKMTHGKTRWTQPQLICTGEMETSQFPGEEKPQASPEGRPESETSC

[5] = molecular target: Human PD-1 antigen protein (Sino Biological, 10377-H08H) (human, UniProt Q15116 25-167); experiment: SPR Biacore 8K, fusion protein captured by anti-human IgG (Fc), human PD-1 as analyte
[6] = molecular target: T4, human IL-2Rβ/γ receptor heterodimer protein (Acrosystem, ILG-H5283) (human, UniProt P14784 27-239; P31785 23-262, limits assumed); experiment: SPR Biacore 8K, fusion protein captured by anti-human IgG (Fc), human IL-2Rβ/γ heterodimer as analyte
T4 sequence (looked up) 1: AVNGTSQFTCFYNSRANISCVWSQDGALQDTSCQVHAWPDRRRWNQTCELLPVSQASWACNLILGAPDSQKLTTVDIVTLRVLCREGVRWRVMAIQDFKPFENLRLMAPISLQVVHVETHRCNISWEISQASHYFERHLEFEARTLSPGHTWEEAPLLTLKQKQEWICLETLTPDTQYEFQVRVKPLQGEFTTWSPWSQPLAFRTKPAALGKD
T4 sequence (looked up) 2: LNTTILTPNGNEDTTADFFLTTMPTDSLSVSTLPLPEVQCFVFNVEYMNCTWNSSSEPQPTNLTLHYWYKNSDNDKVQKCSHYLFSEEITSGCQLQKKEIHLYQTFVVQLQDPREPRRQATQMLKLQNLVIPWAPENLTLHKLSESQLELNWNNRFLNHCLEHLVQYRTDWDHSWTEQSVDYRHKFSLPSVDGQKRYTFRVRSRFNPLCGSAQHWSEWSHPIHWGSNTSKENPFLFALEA

human PD-1 [7] = molecular target: T1, human PD-1; experiment: cell-based or functional assay; remark: listed apart in the source
human PD-1 [8] = molecular target: T1, human PD-1; experiment: flow cytometry on Jurkat cells overexpressing human PD-1
[9] = molecular target: T5, Human PD-1 protein (His Tag) (human, UniProt Q15116 25-167); experiment: ELISA, plate coated with human PD-1 (his tag), anti-human IgG4 Fc-HRP
T5 construct: also called PD1-H5221; PD-1 antigen; not shown: His tag
T5 sequence (Q15116 25-167): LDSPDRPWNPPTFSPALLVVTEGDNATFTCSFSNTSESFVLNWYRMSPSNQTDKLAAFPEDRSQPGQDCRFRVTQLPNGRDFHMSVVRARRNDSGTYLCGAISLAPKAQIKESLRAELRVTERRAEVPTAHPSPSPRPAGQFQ

Chain of Human PD-1 antigen protein (Sino Biological, 10377-H08H) (Q15116 25-167 limits assumed): as the sequence (Q15116 25-167) above
T1 sequence (Q15116 25-288 limits assumed): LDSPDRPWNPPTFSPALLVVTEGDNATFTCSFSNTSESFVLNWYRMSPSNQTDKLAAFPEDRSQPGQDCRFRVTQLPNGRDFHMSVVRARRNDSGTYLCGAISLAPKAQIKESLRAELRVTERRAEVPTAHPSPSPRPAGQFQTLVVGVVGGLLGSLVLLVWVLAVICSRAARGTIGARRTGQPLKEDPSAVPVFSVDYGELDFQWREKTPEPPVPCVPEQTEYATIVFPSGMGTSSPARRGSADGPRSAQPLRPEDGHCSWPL

- M07e-hPD-1 cell proliferation activity (%) at 0.0001 nM (human PD-1 [1]): 1%
- M07e-hPD-1 cell proliferation activity (%) at 0.001 nM (human PD-1 [1]): 3%
- M07e-hPD-1 cell proliferation activity (%) at 0.01 nM (human PD-1 [1]): 28%
- M07e-hPD-1 cell proliferation activity (%) at 0.1 nM (human PD-1 [1]): 87%
- M07e-hPD-1 cell proliferation activity (%) at 1 nM (human PD-1 [1]): 99%
- M07e-hPD-1 cell proliferation activity (%) at 10 nM (human PD-1 [1]): 98%
- M07e-hPD-1 cell proliferation activity (%) at 100 nM (human PD-1 [1]): 102%
- M07e-hPD-1 cell proliferation activity (%) at 1000 nM (human PD-1 [1]): 100%
- M07e cell proliferation activity (%) at 0.46 nM (IL-2Rβ/γ on M07e cells): 0.1%
- M07e cell proliferation activity (%) at 1.4 nM (IL-2Rβ/γ on M07e cells): 3.6%
- M07e cell proliferation activity (%) at 4.1 nM (IL-2Rβ/γ on M07e cells): 28.1%
- M07e cell proliferation activity (%) at 12 nM (IL-2Rβ/γ on M07e cells): 41.6%
- M07e cell proliferation activity (%) at 37 nM (IL-2Rβ/γ on M07e cells): 71.7%
- M07e cell proliferation activity (%) at 111 nM (IL-2Rβ/γ on M07e cells): 87.2%
- M07e cell proliferation activity (%) at 333 nM (IL-2Rβ/γ on M07e cells): 89.8%
- M07e cell proliferation activity (%) at 1000 nM (IL-2Rβ/γ on M07e cells): 100%
- M07e-hPD-1 cell proliferation ratio (%) at 0.0001 nM (human PD-1 [2]): 2.4%
- M07e-hPD-1 cell proliferation ratio (%) at 0.001 nM (human PD-1 [2]): 4.9%
- M07e-hPD-1 cell proliferation ratio (%) at 0.01 nM (human PD-1 [2]): 33.7%
- M07e-hPD-1 cell proliferation ratio (%) at 0.1 nM (human PD-1 [2]): 79%
- M07e-hPD-1 cell proliferation ratio (%) at 1 nM (human PD-1 [2]): 95.9%
- M07e-hPD-1 cell proliferation ratio (%) at 10 nM (human PD-1 [2]): 113%
- M07e-hPD-1 cell proliferation ratio (%) at 100 nM (human PD-1 [2]): 112%
- M07e-hPD-1 cell proliferation ratio (%) at 1000 nM (human PD-1 [2]): 100%
- M07e-hPD-1 cell proliferation ratio (%) at 0.0001 nM (human PD-1 [3]): 4%
- M07e-hPD-1 cell proliferation ratio (%) at 0.001 nM (human PD-1 [3]): 8.1%
- M07e-hPD-1 cell proliferation ratio (%) at 0.01 nM (human PD-1 [3]): 29.3%
- M07e-hPD-1 cell proliferation ratio (%) at 0.1 nM (human PD-1 [3]): 99.5%
- M07e-hPD-1 cell proliferation ratio (%) at 1 nM (human PD-1 [3]): 112%
- M07e-hPD-1 cell proliferation ratio (%) at 10 nM (human PD-1 [3]): 107%
- M07e-hPD-1 cell proliferation ratio (%) at 100 nM (human PD-1 [3]): 105%
- M07e-hPD-1 cell proliferation ratio (%) at 1000 nM (human PD-1 [3]): 100%
- binding result [4]: no binding
- Kd [5]: 19.4 nM
- koff [5]: 0.00182 s⁻¹
- kon [5]: 93700 M⁻¹ s⁻¹
- Kd [6]: 0.253 nM
- koff [6]: 2.23e-05 s⁻¹
- kon [6]: 88100 M⁻¹ s⁻¹
B1: A-PC (Fc fusion)
chain (part 1 of 2): EVQLVESGGGLVQPGGSLRLSCAASGLTFSDYSMSWYRQAPGKGRELVAIISGSGVITHYVDSVKGRFTISRDNAKNTLYLQMRSLRAEDTAVYYCRAVSDWEDYWGQGTQVTVSS
chain (part 2 of 2): GGGGSGGGGSGGGGSAPASSSTKKTQLQLEHLLLDLQMILQGISNYKNPKLTRMLTAKFYMPKKATELKHLQCLEEELKPLEEVLQGAQSKNFHLRPRDLISNINVIVLELKGSETTFMCEYADETATIVEFLNRWITFAQSIISTLT
chain: B1 chain (part 1 of 2)
notes: also called positive control molecule A-PC; PD-1-IL-2v; not shown: IgG1 hinge (C220S) + Fc Knob chain (L234A, L235A, S354C, T366W, EU); D356/L358 or E356/M358 ver; IgG1 hinge (C220S) + Fc Hole chain (L234A, L235A, Y349C, T366S, L368A, Y407V; may have H435R, Y436F; EU)

- IC50, PD-1/PD-L1 NFAT reporter gene system (human PD-1 [7]): 1.35 nM
- EC50 (human PD-1 [8]): 1.09 nM
- EC50 [9]: 0.0861 nM
B2: A6_hIgG4 (antibody, V domains shown)
VH: EVQLVESGGGLVQAGGSLRLSCAVSGRTFSSAAMGWFRQAPGKEREFVAAISWSFGSTYYADSVKGRFTISRDNAKNTVYLQMNSLKPEDTAVYYCAADPSIETMGGGWDYWGQGTQVTVSS
